The target of series [1] is Isw1 (ISW1a catalytic subunit);Ioc3 (Saccharomyces cerevisiae (BY4742?);Saccharomyces cerevisiae (BY4742)) (UniProt P38144+P43596). Kind of series: EMSA. As to conditions: 35 mM Na-HEPES pH 7.8, 5 mM MgCl2, 0.1 mM EGTA, 0.02 M EDTA (so in the source), 70 mM NaCl, 0.1 mg/ml BSA, 5-8% glycerol, 40 uM 2-mercaptoethanol, 30 C, 30 min …. On the technique in general: Mobility shift assays separate free from complexed probe on a gel.

Series [2] has as its target Isw1 (ISW1a catalytic subunit);Ioc3 dcHLB del496-565 (Saccharomyces cerevisiae (BY4742?);Saccharomyces cerevisiae (BY4742)) (UniProt P38144+P43596). Kind of series: EMSA. As to conditions: 35 mM Na-HEPES pH 7.8, 5 mM MgCl2, 0.1 mM EGTA, 0.02 M EDTA (so in the source), 70 mM NaCl, 0.1 mg/ml BSA, 5-8% glycerol, 40 uM 2-mercaptoethanol, 30 C, 30 min ….

pKd: −log10 of the molar value.

By pKd is commonly meant −log10 of the Kd, conventionally taken in molar units.

As for 0N70 mononucleosome, the pKd in series [1] was 7.52; in series [2], 7.49.

Regarding “CACCGGCACGGTCGCTGTTCGATACGTGCGCCGGACGTATATATCTGACACGTGCCTGGCGACTAGGGAGCGATCCCCTTGGCGGTTAAAACGCGGGGGACAGCGCGTACGTGCGTTTAAGCGGTGCTAGAGCTGTCTACGACCAATTGAGCGGCCTCGGCACCGGGAATCTCCAGGGCGGCCGCGTATAGGCTCCGGATCCTCTAGAGTCGACCTCGAAACGGGTACCCCAGGGACTTGAAGTAATAAGGACGGAGGGCCTCTTTCAACATCGATGCACGGTGGTTAGCCTTGGATTGCGCTCTACCGAGCGCTAAGCGTACTTAGAAGCGCGAGCGACGACTTCACACGGTAGGTGGGCGCGCGAACTGGGCAGATCC (double strand) [30(N1)50(N2)6 dinucleosome]”, the pKd in series [1] is 7.99; in series [2], 7.55.

As for “TCGGAACGCTATCCGACTGGCACCGGCACGGTCGCTGTTCGATACGTGCGCCGGACGTATATATCTGACACGTGCCTGGCGACTAGGGAGCGATCCCCTTGGCGGTTAAAACGCGGGGGACAGCGCGTACGTGCGTTTAAGCGGTGCTAGAGCTGTCTACGACCAATTGAGCGGCCTCGGCACCGGGAATCTCCAGGGCGGCCGCGTATAGGCTCCGGATCCTCTAGAGTCGACCTCGAAACGGGTACCCCAGGGACTTGAAGTAATAAGGACGGAGGGCCTCTTTCAACATCGATGCACGGTGGTTAGCCTTGGATTGCGCTCTACCGAGCGCTAAGCGTACTTAGAAGCGCGAGCGACGACTTCACACGGTAGGTGGGCGCGCGAACTGGGCAGATCC (double strand) [50(N1)50(N2)6 dinucleosome]”, the pKd in series [1] is 8.28; in series [2] it was 7.90.

For “CCGGACGTATATATCTGACACGTGCCTGGCGACTAGGGAGCGATCCCCTTGGCGGTTAAAACGCGGGGGACAGCGCGTACGTGCGTTTAAGCGGTGCTAGAGCTGTCTACGACCAATTGAGCGGCCTCGGCACCGGGAATCTCCAGGGCGGCCGCGTATAGGCTCCGGATCCTCTAGAGTCGACCTCGAAACGGGTACCCCAGGGACTTGAAGTAATAAGGACGGAGGGCCTCTTTCAACATCGATGCACGGTGGTTAGCCTTGGATTGCGCTCTACCGAGCGCTAAGCGTACTTAGAAGCGCGAGCGACGACTTCACACGGTAGGTGGGCGCGCGAACTGGGCAGATCC (double strand) [0(N1)50(N2)6 dinucleosome]”, the pKd is 7.34 in series [1] and 7.46 in series [2].

The values are drawn from PMC7680125.
